Experimental findings from patent publication US20100279930A1 (published 2010) are described below.

In one assay the target is T1, human Y4 receptor (human, UniProt P50391 1-375). Nature of the assay: 125I-PP displacement.
T1 sequence (P50391 whole entry): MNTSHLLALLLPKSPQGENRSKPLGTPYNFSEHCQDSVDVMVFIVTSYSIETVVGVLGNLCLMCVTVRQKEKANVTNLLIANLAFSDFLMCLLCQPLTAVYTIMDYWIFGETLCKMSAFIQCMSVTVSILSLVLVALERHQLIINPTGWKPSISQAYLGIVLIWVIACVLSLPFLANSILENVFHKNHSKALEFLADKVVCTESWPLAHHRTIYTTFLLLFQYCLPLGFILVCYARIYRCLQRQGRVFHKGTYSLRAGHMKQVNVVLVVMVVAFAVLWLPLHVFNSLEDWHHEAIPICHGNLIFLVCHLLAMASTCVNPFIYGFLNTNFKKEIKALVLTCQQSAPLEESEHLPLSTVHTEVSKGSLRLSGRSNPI
Usually IC50 stands for the point on the concentration scale where inhibition reaches its midpoint. Low readings indicate higher potency, high ones lower potency. The molecule PAPLEPTYPGDNATPEQLAKYYSELRRYINRLTRPRY [4060277] showed an IC50 of 0.076 nM.
The same measure, in the same setting: in the case of PAPLEPTYPGDNATPEELAKYYSELRRYINKLTRPRY [4060316] it was 0.101 nM; in that of PAPLEPTYPGDDATPEQLAKYYSELRRYINKLTRPRY [4060314], 0.084 nM.
Molecule PAPLEPKYPGDNATPEQMAKYYSELRRYIDRLTRPRY [4060603] registered an IC50 of 0.102 nM. This IC50 and that of the molecule before are within 1.5-fold of each other.
Same read-out and setting: the same measure for GAPLEPTYPGDNATPEQKAKYYSELRRYINKLTRPRY [4060279]: 0.067 nM; for GAPLEPTYPGDNATPEELAKYYSELRRYINKLTRPRY [4060315]: 0.097 nM; for GAPLEPTYPGDNATPEQLAKYYSELRRYIDKLTRPRY [4060606]: 0.131 nM.
Still for that read-out and setting: in the case of GAPLEPTYPGDDATPEQLAKYYSELRRYINHLTRPRY [4060306] it was 0.098 nM; in that of GAPLEPTYPGDDATPEQLAKYYSELRRYINKLTRPRY [4060313], 0.097 nM; in that of GAPLEPTYPGDNATPEQLAKYYSELRRYINRLTRPRY [4060276], 0.073 nM.
For the molecule GAPLEPEAPGDNATPEQMAKYYSELRRYINKLTRPRY [4060691], the IC50 stood at 0.153 nM.
Same read-out and setting: the same measure for PAPLEPKAPGDNATPEQMAKYYSELRRYIDKLTRPRY [4060680]: 0.109 nM.
Same read-out and setting: in the case of GAPLEPVYPGDNATPEQMARYYSELRRYIDKLTRPRY [4060604] it was 0.121 nM; in that of PAPLEPHYPGDNATPEEMAKYYSELRRYIDKLTRPRY [4060895], 0.121 nM.
For the molecule AAPLEPTAPGDNATPEQMARYAAALRRYINKLTRPRY [4060694], the IC50 came to 0.079 nM.
For PAPLEPEYPGDDATPQQKARYAAELRRYINKLTRPRY [4060685], the IC50 amounted to 0.065 nM.
In turn, YAPLEPEAPGDDATPQQKARYAAELRRYINKLTRPRY [4060681] displayed an IC50 of 0.136 nM.
GAPLEPEYPGDDATPQQKARYAAELRRYINKLTRPRY [4060684] returned an IC50 of 0.076 nM.
AAPLEPEYPGDDATPQQKARYAAELRRYINKLTRPRY [4060686] came in with an IC50 of 0.055 nM.
GAPLEPTYPGDDATPEQLAKYAAELRRYINHLTRPRY [4060308] showed an IC50 of 0.117 nM.
Consider PAPLEPVYPGDNATPEQKAKYAAELRRYIDHLTRPRY [4061087], for which the IC50 is 0.218 nM.
PAPLEPVYPGDNATPEQKAKYAAELRRYIDKLTRPRY [4061085]: the IC50 was 0.159 nM.
PAPLEPTYPGDNATPEQKAKYAAELRRYIDKLTRPRY [4061081]: the IC50 was found to be 0.21 nM.
On the same count and under the same terms, the same measure for AAPLEPTYPGDNATPEQKAKYAAELRRYIDKLTRPRY [4061082]: 0.158 nM.
On the same count and under the same terms, in the case of AAPLEPTYPGDNATPEQMARYAAALRRYIDKLTRPRY [4060695] it was 0.091 nM; in that of GAPLEPTYPGDNATPEQKAKYAAELRRYIDKLTRPRY [4061080], 0.105 nM; in that of GAPLEPEYPGDNATPEQKAKYAAALRRYIDKLTRPRY [4060601], 0.088 nM.
PAPLEPHYPGDNATPEEMAKYAAELRRYIDKLTRPRY [4060687] showed an IC50 of 0.171 nM.
AAPLEPKYPGDNATPEQLAKYAAELRRYIDKLTRPRY [4060696] came in with an IC50 of 0.151 nM.
GAPLEPEYPGDNATPEQMAKYAAALRRYIDKLTRPRY [4060896] displayed an IC50 of 0.114 nM. This IC50 and that of the molecule before are within 1.5-fold of each other.
Still for that read-out and setting: the same measure for GAPLEPEYPGDNATPEQKAKYAAALRRYINRLTRPRY [4060301]: 0.036 nM; for GAPLEPEYPGDDATPEQKARYAAALRRYINKLTRPRY [4060311]: 0.099 nM; for GAPLEPEYPGDDATPEQKARYAAALRRYINHLTRPRY [4060312]: 0.101 nM.
Same read-out and setting: in the case of PLEPVYPGDNATPEQLAKYAAELRRYIDKLTRPRY [4060899] it was 0.153 nM.

The target of the next assay is T1, human Y4 receptor. In words: 125I-PP displacement. The source holds these as a separate data set.
On to AAPLEPEYPGDDATPQQMAHYAAELRRYINKLTRPRY [4057141], for which the IC50 turned out to be 0.114 nM.
Turning to HAPLEPEYPGDDATPQQMARYAAELRRYINKLTRPRY [4057137], the IC50 was determined as 0.092 nM.
On the same count and under the same terms, the same measure for AKPLEPEYPGDDATPQQMARYAAELRRYINKLTRPRY [4057280]: 0.049 nM; for PAPLEPVYPGDNATPEQIAKYAADLRRYINKLTRPRY [4057144]: 0.083 nM.
With PAPLEPHYPGDNATPEQMAKYAADLRRYINKLTRPRY [4057231], the IC50 is 0.049 nM.
Molecule PAPLEPVYPGDNATPEQMARYAAELRRYINKLTRPRY [4057162] showed an IC50 of 0.06 nM.
Turning to HPLEPEYPGDDATPQQMARYAAELRRYINKLTRPRY [4057275], the IC50 amounted to 0.162 nM.
